According to IntAct's records for PubMed 18959476:

Target: mthK, O27564-2

## Calcium-gated potassium channel MthK (Methanobacterium thermoautotrophicum) (from UniProt O27564-1) L3D
  effect of a mutation on the interaction: disrupting interaction
